# Laboratory results taken from patent US20160040196A1, “ENZYMATIC CONVERSION OF BOTH ENANTIOMERS OF 1,2-PROPANEDIOL TO PROPIONALDEHYDE” (University of Georgia Research Foundation, Inc., priority 2014, published 2016).
# B1: B12-independent diol dehydratase from R. inulinivorans (RiDD) (Roseburia inulinivorans) (protein)
# chain: MGNYDSTPIAKSDRIKRLVDHLYAKMPEIEAARAELITESFKATEGQPVVMRKARAFEHILKNLPIIIRPEELIVGSTTIAPRGCQTYPEFSYEWLEAEFETVETRSADPFYISEETKKRLLAADAYWKGKTTSELATSYMAPETLRAMKHNFFTPGNYFYNGVGHVTVQYETVLAIGLNGVKEKVRKEMENCHFGDADYSTKMCFLESILISCDAVITYANRYAKMAEEMAEKETDAARRQELLTIARVCKNVPEFPAESFQEACQSFWFIQQVLQIESSGHSISPGRFDQYMYPYYEKDLKEGSLTREYAQELIDCIWVKLNDLNKCRDAASAEGFAGYSLFQNLIVGGQTVQGRDATNDLSFMCITASEHVFLPMPSLSIRVWHGSSKALLMRAAELTRTGIGLPAYYNDEVIIPALVHRGATMDEARNYNIIGCVEPQVPGKTDGWHDAAFFNMCRPLEMVFSNGYDNGEIASIQTGNVESFQSFDEFMEAYRKQMLYNIELMVNADNAIDYAHAKLAPLPFESCLVDDCIKRGMSAQEGGAIYNFTGPQGFGIANVADSLYTIKKLVFEEKRITMGELKKALEMNYGKGLDATTAGDIAMQVAKGLKDAGQEVGPDVIANTIRQVLEMELPEDVRKRYEEIHEMILELPKYGNDIDEVDELAREAAYFYTRPLETFKNPRGGMYQAGLYPVSANVPLGAQTGATPDGRLAHTPVADGVGPTSGFDISGPTASCNSVAKLDHAIASNGTLFNMKMHPTAMAGEKGLESFISLIRGYFDQQGMHMQFNVVDRATLLDAQAHPEKYSGLIVRVAGYSALFTTLSKSLQDDIIKRTEQADNR
# Tests used:
# [1] = system: RiDD; experiment: Hydrogen-driven conversion in a cell-free reactor (proof of concept, FIG. 2); format: biochemical, Roseburia inulinivorans; details: 10% (v/v) 1,2-propanediol, 1 atm hydrogen
# Description: In the simplest embodiment the “cell free reactor” would include only “catalytic” amounts of the enzymes described herein. Specifically, a catalytic amount is one molecule and anything greater than one enzyme molecule. In the data shown in FIG. 2 of this disclosure the cell free reactor includes the following; 10 μM of RiDD, 100 μM yeast alcohol dehydrogenase (YADH), and 200 μM of the soluble hydrogenase from Ralstonia metallidurans (formally Alcaligenes eutrophus). The reaction was carried out under strictly anaerobic conditions (oxygen-free argon gas) and initiated by the addition of the reduced RiDD-AE (50 μM final) and S-adenosylmethionine (1 μM). 100% hydrogen gas was maintained in the head space of the reactor at 1 atm and the reaction also included 1 mM NADH, 20 mM TRIS pH 7.9, and 1% glycerol.
# This experiment was performed in a 50 mL reactor with 20 mL liquid volume and the remaining headspace under 1 atm of oxygen-free hydrogen gas. Experimental conditions were as follows 20 mM Tris pH 7.9, 10% (v/v) 1,2-propanediol, 1% (v/v) glycerol 50 μM purified RiDD, 100 μM purified DhaT, 100 μM NAD+, and 100 μM purified H2ase. After a brief pre-incubation (20 min) period to insure strictly anaerobic conditions were achieved (less than 1 ppm O2), purified RiDD-AE in the reduced (formally [4Fe-4S]′) form was added to a final concentration of 50 μM to initiate the reaction. […]
# [2] = system: C[C@H](O)CO; experiment: purified protein, by the assay type
# [3] = system: OCC(O)CO; experiment: purified protein, by the assay type
# [4] = substrate: C[C@@H](O)CO; experiment: Coupled enzyme assay for the RiDD (NADH-dependent reduction of propionaldehyde by YADH); format: biochemical, Roseburia inulinivorans; details: other: substrate of RiDD; Michaelis-Menten fit, FIG. 7
# Source text: (§1) FIG. 5A depicts a chemical pathway describing how the conversion of glycerol, by an activated glycerol dehydratase can be easily monitored using purified DhaT and following the NADH-dependent reduction of 3-hydroxypropionaldehyde to 1,3-propanediol. Similarly, FIG. 5B depicts a chemical pathway for how the conversion of 1,2-propanediol, by an activated diol-dehydratase can be monitored by following the NADH-dependent reduction of propionaldehyde by YADH.
# (§2) A coupled enzyme assay for the CbGD and the RiDD was performed as previously described^5 with minor modifications. Where indicated, varying amounts of the substrate (specifically, glycerol, R-1,2-propanediol, or S-1,2-propanediol) were added from pure stock solutions purchased through Sigma Chemical Company™ in some cases the stocks were diluted with ddH2O in order to allow for accurate measurement of the substrate at the lower concentrations. In addition, when glycerol was used as the substrate for the CbGD, the enzyme YqhD was included in the assay in place of yeast alcohol dehydrogenase (YADH) and […]. YqhD is an aldehyde reductase capable of the NADPH-dependent reduction of several aldehydes, including 3-hydroxypropionaldehyde and was overexpressed and purified from E. coli as previously described^9.
# [5] = substrate: C[C@H](O)CO; experiment: as above; format: biochemical, Roseburia inulinivorans; details: other: substrate of RiDD; Michaelis-Menten fit, FIG. 7
# Source text: as §1, §2
molecule,measurement,setting,value
"CC(O)CO (racemic) [1,2-propanediol, propane-1,2-diol]","propanol titer from conversion of 1,2-propanediol","[1]; after 6 hours, 1% glycerol",~14 g/L
"OCC(O)CO [glycerol, propane-1,2,3-triol]",concentration of glycerol over the reaction,"[1]; 1% (v/v) glycerol, FIG. 2",remained unchanged
C. butyricum glycerol dehydratase (CbGD) (Clostridium butyricum),Km,[2],800 µM
same,Km,[3],200 µM
B1,Km,[4],800 µM
same,Km,[5],500 µM
